Primed or numbered codes have the meaning given here. Where no end group is shown, it is not given here. FITC′ = fluorescein isothiocyanate label
Legend:
Assay in all cases: fluorescence polarisation; FITC-labeled PhoP1C14 peptide (50 nM) mixed with 0-160 µM of the complex of each PhoEF1A mutant, GTP and PfuPelota; 20 mM HEPES-KOH pH 7.6, 10 mM MgCl2, 150 mM KCl, 0.1 mg/ml BSA; 25 °C; nonlinear regression, one site specific binding (GraphPad Prism 6); average of three replicates
Conditions in all cases: both partners purified
[1] = molecular target: T1, PhoEF1A I328S•GTP•PfuPelota complex (Pyrococcus horikoshii | Pyrococcus …, UniProt O59153 1-428, I328S)
T1 construct: elongation factor aEF1A of Pyrococcus horikoshii (PhoEF1A); complex of the EF1A mutant, GTP and PfuPelota; also called I328(F331)S; P. horikoshii aEF1A-I328S
T1 sequence 1: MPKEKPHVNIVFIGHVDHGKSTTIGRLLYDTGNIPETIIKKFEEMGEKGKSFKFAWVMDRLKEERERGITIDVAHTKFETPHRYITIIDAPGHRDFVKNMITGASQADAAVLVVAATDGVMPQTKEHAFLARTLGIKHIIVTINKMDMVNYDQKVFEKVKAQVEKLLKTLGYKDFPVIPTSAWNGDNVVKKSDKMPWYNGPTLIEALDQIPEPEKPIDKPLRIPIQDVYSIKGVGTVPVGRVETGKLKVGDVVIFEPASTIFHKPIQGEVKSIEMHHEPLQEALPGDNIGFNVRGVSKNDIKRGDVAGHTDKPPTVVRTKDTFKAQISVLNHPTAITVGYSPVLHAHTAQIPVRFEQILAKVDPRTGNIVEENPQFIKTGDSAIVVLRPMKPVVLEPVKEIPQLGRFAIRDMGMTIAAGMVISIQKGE
T1 sequence 2: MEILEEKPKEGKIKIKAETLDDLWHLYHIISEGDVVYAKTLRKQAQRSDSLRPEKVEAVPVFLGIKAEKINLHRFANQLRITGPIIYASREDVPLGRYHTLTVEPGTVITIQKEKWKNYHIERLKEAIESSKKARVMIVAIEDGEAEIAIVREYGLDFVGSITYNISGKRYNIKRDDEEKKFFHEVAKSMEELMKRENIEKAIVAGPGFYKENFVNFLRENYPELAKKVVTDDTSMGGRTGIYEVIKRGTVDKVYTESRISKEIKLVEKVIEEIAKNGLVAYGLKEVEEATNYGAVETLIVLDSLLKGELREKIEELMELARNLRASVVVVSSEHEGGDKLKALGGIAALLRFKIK

[2] = molecular target: T2, PhoEF1A V398S•GTP•PfuPelota complex (Pyrococcus horikoshii | Pyrococcus …, UniProt O59153 1-428, V398S)
T2 construct: elongation factor aEF1A of Pyrococcus horikoshii (PhoEF1A); complex of the EF1A mutant, GTP and PfuPelota; also called V398(F401)S; P. horikoshii aEF1A-V398S
T2 sequence 1: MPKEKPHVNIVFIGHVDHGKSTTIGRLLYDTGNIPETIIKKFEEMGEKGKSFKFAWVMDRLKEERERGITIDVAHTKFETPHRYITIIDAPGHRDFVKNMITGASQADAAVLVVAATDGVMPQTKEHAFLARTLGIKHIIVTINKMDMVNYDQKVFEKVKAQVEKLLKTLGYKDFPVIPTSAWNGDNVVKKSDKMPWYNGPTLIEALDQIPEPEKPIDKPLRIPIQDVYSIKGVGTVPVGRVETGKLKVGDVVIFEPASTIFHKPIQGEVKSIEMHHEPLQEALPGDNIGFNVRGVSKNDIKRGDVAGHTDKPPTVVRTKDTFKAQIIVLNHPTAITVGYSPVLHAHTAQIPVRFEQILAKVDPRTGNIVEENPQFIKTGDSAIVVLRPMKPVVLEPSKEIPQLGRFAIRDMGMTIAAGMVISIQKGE
T2 sequence 2: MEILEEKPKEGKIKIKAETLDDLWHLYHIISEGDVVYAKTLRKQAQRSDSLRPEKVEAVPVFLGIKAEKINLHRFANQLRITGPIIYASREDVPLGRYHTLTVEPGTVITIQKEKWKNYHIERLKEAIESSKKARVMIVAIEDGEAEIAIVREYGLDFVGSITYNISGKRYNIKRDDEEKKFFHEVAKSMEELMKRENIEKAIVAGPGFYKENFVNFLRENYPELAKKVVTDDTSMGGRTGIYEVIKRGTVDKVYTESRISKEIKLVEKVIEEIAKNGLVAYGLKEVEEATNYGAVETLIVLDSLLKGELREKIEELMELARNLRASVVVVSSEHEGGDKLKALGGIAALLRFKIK

[3] = molecular target: T3, PhoEF1A R406A•GTP•PfuPelota complex (Pyrococcus horikoshii | Pyrococcus …, UniProt O59153 1-428, R406A)
T3 construct: elongation factor aEF1A of Pyrococcus horikoshii (PhoEF1A); complex of the EF1A mutant, GTP and PfuPelota; also called R406(R409)A; P. horikoshii aEF1A-R406A
T3 sequence 1: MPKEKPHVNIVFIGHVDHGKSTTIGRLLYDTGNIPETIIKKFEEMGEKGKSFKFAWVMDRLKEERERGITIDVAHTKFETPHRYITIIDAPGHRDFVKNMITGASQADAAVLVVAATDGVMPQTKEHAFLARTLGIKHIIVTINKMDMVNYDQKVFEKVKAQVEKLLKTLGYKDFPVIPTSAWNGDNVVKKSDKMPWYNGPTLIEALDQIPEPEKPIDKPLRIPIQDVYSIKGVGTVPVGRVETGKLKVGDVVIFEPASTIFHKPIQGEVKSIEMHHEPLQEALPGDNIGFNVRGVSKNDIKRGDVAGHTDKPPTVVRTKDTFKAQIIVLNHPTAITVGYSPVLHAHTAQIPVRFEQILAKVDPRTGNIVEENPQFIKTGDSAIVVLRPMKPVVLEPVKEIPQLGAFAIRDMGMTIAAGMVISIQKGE
T3 sequence 2: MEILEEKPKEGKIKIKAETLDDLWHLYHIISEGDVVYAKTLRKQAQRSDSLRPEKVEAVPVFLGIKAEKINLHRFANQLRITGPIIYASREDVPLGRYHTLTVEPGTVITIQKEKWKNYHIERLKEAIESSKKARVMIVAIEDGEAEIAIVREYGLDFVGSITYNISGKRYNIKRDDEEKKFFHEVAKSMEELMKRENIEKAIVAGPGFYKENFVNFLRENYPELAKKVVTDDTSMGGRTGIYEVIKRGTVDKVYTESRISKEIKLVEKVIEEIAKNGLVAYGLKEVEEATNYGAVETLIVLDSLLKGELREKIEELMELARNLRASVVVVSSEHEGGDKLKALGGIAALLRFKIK

Kd [1]: 93.3 ± 10.2 µM
Kd [2]: 38.3 ± 2.8 µM
Kd [3]: 33 ± 2.1 µM
B1: FITC-labeled C-terminal 14-mer peptide of P. horikoshii aP1 (PhoP1C14) (peptide)
peptide: {FITC′}-SEEEALAGLSALFG
notes: also called FITC-labeled peptide of PhoP1C14; source: synthetic peptide (Hokkaido System Science Co., Ltd)

From publication PMC6791870, “Switch of the interactions between the ribosomal stalk and EF1A in the GTP- and GDP-bound conformations” (Scientific Reports, 2019)
